What was measured:
[1] = biological target: IMPDH1(595)-S477D (human); test: cryo-EM structure
[2] = biological target: IMPDH1(595)-S477D (human); test: negative stain EM

stoichiometry N [1]: 8 | stoichiometry N [2]: 8
Substance: IMPDH1(595)-S477D (enzyme)

From article PMC10849882
